The record followed here is PMC314469, “Protein Interaction Networks by Proteome Peptide Scanning” (PLoS Biology, 2004).

What all share (assay): SPOT array
The target in assay [1] is T1, Boi2 SH3 (BOI2_YEAST), P39969.
T1 chain: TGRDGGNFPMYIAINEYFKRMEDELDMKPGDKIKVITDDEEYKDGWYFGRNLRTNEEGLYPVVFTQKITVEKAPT

The target of assay [2] is T2, Boi1 SH3 (BOI1_YEAST), P38041.
T2 chain: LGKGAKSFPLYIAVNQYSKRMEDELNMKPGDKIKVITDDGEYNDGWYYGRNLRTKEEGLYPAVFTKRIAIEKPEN

For assay [3], the target named is T3, Rvs167 SH3 (RV167_YEAST), P39743.
T3 chain: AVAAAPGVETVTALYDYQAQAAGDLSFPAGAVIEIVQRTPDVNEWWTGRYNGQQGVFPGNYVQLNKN

Assay [4] concerns the target T4, Myo5 SH3 (MYO5_YEAST), Q04439.
T4 chain: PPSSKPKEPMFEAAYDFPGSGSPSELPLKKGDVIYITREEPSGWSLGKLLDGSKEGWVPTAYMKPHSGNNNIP

The target in assay [5] is Sho1 SH3 (SHO1_YEAST), P40073.
Assay [6] concerns the target T5, Yhr016c SH3 (YSC84_YEAST), P32793.
T5 chain: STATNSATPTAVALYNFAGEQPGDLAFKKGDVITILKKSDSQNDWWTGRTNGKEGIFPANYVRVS

Assay [7] concerns the target T6, Yfr024 SH3 (LSB3_YEAST), P43603.
T6 chain: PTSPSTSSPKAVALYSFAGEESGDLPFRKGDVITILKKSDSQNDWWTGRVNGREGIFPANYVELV

Sequence of Sho1 SH3 (SHO1_YEAST), P40073 (P40073 295-366): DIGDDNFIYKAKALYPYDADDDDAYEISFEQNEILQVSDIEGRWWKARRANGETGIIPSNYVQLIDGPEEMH

In the case of WEALKSVPIPPRKN [YJR113C 98-111], the normalised SPOT signal, Boehringer light units (BLU); mean over the file's lines of this peptide worked out at 1740 in assay [1]; 52300 in assay [2]; 2780 in assay [3]; 379 in assay [4]; 3290 in assay [5]; 1880 in assay [6]. The normalised SPOT signal, Boehringer light units (BLU); mean over the file's lines of this peptide in assay [7] was determined as 9510.
For the molecule YDLTRFLPNHPGGQ [YML054C 114-127], the normalised SPOT signal, Boehringer light units (BLU); mean over the file's lines of this peptide is 46.2 in assay [1]; 59.5 in assay [2]; 20.5 in assay [3]; 80.6 in assay [4]; 59.7 in assay [5]; 22.5 in assay [6]. The same molecule yielded a normalised SPOT signal, Boehringer light units (BLU); mean over the file's lines of this peptide in assay [7] of 147.
Regarding WFDLKGLPRQPEPL [YFL041W 550-563], the normalised SPOT signal, Boehringer light units (BLU); mean over the file's lines of this peptide was 409 in assay [1]; 78.2 in assay [2]; 278 in assay [3]; 102 in assay [4]; 19600 in assay [5]; 201 in assay [6]. In assay [7], this molecule returned a normalised SPOT signal, Boehringer light units (BLU); mean over the file's lines of this peptide of 4860.
As to YEGPRGAPGMPEML [YJR016C 463-476], the normalised SPOT signal, Boehringer light units (BLU); mean over the file's lines of this peptide in assay [1] is 26.3; in assay [2], 64; in assay [3], 63.3; in assay [4] it was 166; in assay [5], 39.6; in assay [6] it was 15.4. Besides, in assay [7], the normalised SPOT signal, Boehringer light units (BLU); mean over the file's lines of this peptide amounted to 131.
Take WENFKEEPGEPLSR [YMR227C 326-339]: the normalised SPOT signal, Boehringer light units (BLU); mean over the file's lines of this peptide worked out at 81.2 in assay [1]; 104 in assay [2]; 82 in assay [3]; 96.8 in assay [4]; 38.9 in assay [5]; 140 in assay [6]. Moreover, the normalised SPOT signal, Boehringer light units (BLU); mean over the file's lines of this peptide in assay [7] came out at 2790.
As to WLGNKYDPENPFND [YBL088C 600-613], the normalised SPOT signal, Boehringer light units (BLU); mean over the file's lines of this peptide in assay [1] was 70.7; in assay [2], 66.1; in assay [3], 149; in assay [4] it was 88.8; in assay [5] it was 62.8; in assay [6] it was 125. Moreover, the normalised SPOT signal, Boehringer light units (BLU); mean over the file's lines of this peptide in assay [7] amounted to 862.
Take WLDEKRIPSTPVDY [YGR124W 196-209]: the normalised SPOT signal, Boehringer light units (BLU); mean over the file's lines of this peptide in assay [1] was 184; in assay [2], 107; in assay [3], 177; in assay [4], 240; in assay [5], 191; in assay [6] it was 278. In assay [7], this molecule came in with a normalised SPOT signal, Boehringer light units (BLU); mean over the file's lines of this peptide of 3060.
Consider YAVDKIMPPTPAKK [YAL024C 308-321], for which the normalised SPOT signal, Boehringer light units (BLU); mean over the file's lines of this peptide in assay [1] came out at 2; in assay [2], 44.9; in assay [3], 71.5; in assay [4], 110; in assay [5], 112; in assay [6] it was 22. The molecule further came in with a normalised SPOT signal, Boehringer light units (BLU); mean over the file's lines of this peptide in assay [7] of 512.
Consider YAVGRIVPDSPTYD [YBL035C 295-308], for which the normalised SPOT signal, Boehringer light units (BLU); mean over the file's lines of this peptide in assay [1] came to 33.2; in assay [2] it was 87.3; in assay [3], 127; in assay [4], 189; in assay [5], 39.9; in assay [6] it was 257. The same molecule yielded a normalised SPOT signal, Boehringer light units (BLU); mean over the file's lines of this peptide in assay [7] of 159.
As for WFILKLFPHEPIEG [YMR034C 292-305], the normalised SPOT signal, Boehringer light units (BLU); mean over the file's lines of this peptide in assay [1] is 30.6; in assay [2], 12.8; in assay [3], 43.8; in assay [4], 1270; in assay [5] it was 31.7; in assay [6], 131. In assay [7], this molecule returned a normalised SPOT signal, Boehringer light units (BLU); mean over the file's lines of this peptide of 1350.
As to WRWARDTPRAPGLH [YCR020C 147-160], the normalised SPOT signal, Boehringer light units (BLU); mean over the file's lines of this peptide in assay [1] turned out to be 3730; in assay [2], 46.7; in assay [3], 1330; in assay [4] it was 2100; in assay [5], 2030; in assay [6], 1970. In addition, the normalised SPOT signal, Boehringer light units (BLU); mean over the file's lines of this peptide in assay [7] worked out at 7740.
On to WSQMRMNPTNPDWI [YPR074C 45-58], for which the normalised SPOT signal, Boehringer light units (BLU); mean over the file's lines of this peptide in assay [1] came to 1320; in assay [2] it was 115; in assay [3], 892; in assay [4] it was 81.2; in assay [5], 132; in assay [6] it was 1270. This molecule yielded a normalised SPOT signal, Boehringer light units (BLU); mean over the file's lines of this peptide in assay [7] of 3220.
YSPWKLSPLLPILY [YCR001W 27-40]: the normalised SPOT signal, Boehringer light units (BLU); mean over the file's lines of this peptide is 99.3 in assay [1]; 88.3 in assay [2]; 66.5 in assay [3]; 176 in assay [4]; 63.6 in assay [5]; 40.4 in assay [6]. In addition, in assay [7], the normalised SPOT signal, Boehringer light units (BLU); mean over the file's lines of this peptide was found to be 514.
WLDEKRIPSTPIDY [YPR145W 196-209]: the normalised SPOT signal, Boehringer light units (BLU); mean over the file's lines of this peptide in assay [1] amounted to 962; in assay [2], 11.5; in assay [3] it was 897; in assay [4] it was 163; in assay [5], 81.5; in assay [6], 179. Further, the normalised SPOT signal, Boehringer light units (BLU); mean over the file's lines of this peptide in assay [7] stood at 1670.
